Tested on: GAL4(1-147)-VP16 (Saccharomyces cerevisiae / herpes simplex virus?)
Conditions: in vitro transcription stimulation with purified holoenzyme, factor a, TBP; 10-fold in nuclear extract

## pGAL4CG- (+GAL4 site template)
  activity: 5 fold
